In article PMC6108849, “Heteromeric RNP Assembly at LINEs Controls Lineage-Specific RNA Processing”:

Columns and labels:
rPTBP1;rMATR3 PRI-RRMs = rPTBP1;rMATR3 PRI-RRMs (human?;human?, UniProt P26599;P43243 1-557;341-592, |); test: UV crosslinking; PTBP1 crosslinking retained at excess rMATR3; heteromeric complex; 30 C 20 min, 10 fmol RNA, UV crosslink on ice (1920 mJ), RNase A1/T1 digestion, 15% denaturing PAGE; buffer, salt and pH not stated; details: protein: recombinant;recombinant; (HisTrap purified); copies: 1;1; label: 32P-UTP
Chain of rPTBP1;rMATR3 PRI-RRMs (P26599 whole entry, one chain of several): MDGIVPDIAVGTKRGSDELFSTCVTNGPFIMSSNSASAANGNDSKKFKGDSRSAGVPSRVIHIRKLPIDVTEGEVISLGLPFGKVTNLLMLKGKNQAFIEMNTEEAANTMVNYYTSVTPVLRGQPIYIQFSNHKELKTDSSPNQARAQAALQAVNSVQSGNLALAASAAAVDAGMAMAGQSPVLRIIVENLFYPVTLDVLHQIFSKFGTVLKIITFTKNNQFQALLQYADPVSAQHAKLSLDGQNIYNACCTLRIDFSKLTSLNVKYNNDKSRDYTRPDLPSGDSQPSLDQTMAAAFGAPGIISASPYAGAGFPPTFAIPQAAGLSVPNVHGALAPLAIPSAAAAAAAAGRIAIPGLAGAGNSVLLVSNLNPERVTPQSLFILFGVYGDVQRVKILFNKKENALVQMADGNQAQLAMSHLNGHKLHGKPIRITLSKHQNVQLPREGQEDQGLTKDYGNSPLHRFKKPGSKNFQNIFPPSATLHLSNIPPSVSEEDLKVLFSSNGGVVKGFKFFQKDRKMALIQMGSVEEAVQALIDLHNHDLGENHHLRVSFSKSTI

rMATR3 RRMs = target: T1, rMATR3 RRMs (UniProt P43243 362-592); test: UV crosslinking competition; competes with 0.5 uM rPTBP1 at equimolar concentration; 30 C 20 min, 10 fmol RNA, UV crosslink on ice (1920 mJ), RNase A1/T1 digestion, 15% denaturing PAGE; buffer, salt and pH not stated; details: protein: recombinant; (HisTrap purified); label: 32P-UTP
T1 sequence: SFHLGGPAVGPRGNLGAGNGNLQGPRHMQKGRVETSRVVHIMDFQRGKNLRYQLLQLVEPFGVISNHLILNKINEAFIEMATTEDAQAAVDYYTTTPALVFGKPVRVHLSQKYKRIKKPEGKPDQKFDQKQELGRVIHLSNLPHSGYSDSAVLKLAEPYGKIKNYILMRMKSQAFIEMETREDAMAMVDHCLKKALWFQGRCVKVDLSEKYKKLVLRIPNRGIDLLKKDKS

B1: ATCTT2 RNA probe (ssRNA)
RNA: GAAUACGAAUUCCAUAUAUGAUCGAUAAAUAUAUGGUACCUUGCUAUCUUACAUCUUUUUACGGAUCCCAUAUAUGAUCGAUAUAUAUAAGCU
binding result (rPTBP1;rMATR3 PRI-RRMs): binds | binding result (rMATR3 RRMs): binds
